Measured values as given in patent publication US20220380457A1.

Biological target: FcγRIIIA (CD16α) on human NK cells in whole blood (human) (UniProt P08637)
Assay: cell-based or functional assay

UniProt P08637, sequence (P08637 17-254): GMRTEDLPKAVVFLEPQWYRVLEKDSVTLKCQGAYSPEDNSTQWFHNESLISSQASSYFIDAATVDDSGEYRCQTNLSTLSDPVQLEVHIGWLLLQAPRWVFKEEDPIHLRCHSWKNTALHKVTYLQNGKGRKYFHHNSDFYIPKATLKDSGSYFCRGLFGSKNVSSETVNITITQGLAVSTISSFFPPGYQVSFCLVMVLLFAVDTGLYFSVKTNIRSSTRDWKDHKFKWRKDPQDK

NK cell activation in whole human blood, CD16/CD62L staining, FIG. 11A control row, left lower quadrant (downregulation of CD16α): 45.2 | NK cell activation in whole human blood, CD107α/CD69 staining, FIG. 11B control row, right upper quadrant (upregulation of CD107α): 35.3 | NK cell activation with IdeZ, FIG. 11A IdeZ row, left lower quadrant: 8.8 | NK cell activation with IdeZ, FIG. 11B IdeZ row, right upper quadrant: 1.9 | depletion of CD19(+) B cells with IdeZ against WT rituximab in control blood: 63% | residual CD19(+) B cells in blood with IdeZ, FIG. 11C IdeZ row, right lower quadrant: 9.8
Substance: WT rituximab (soluble antibody, wild type hinge)
